In patent US20240342199:

Assays:
[1] = biological target: Recombinant GST-CypD (wild type) (UniProt P30405)
[2] = biological target: Recombinant CypD Ser123→Ala mutant (UniProt P30405)
Chain of Recombinant CypD Ser123→Ala mutant (P30405 whole entry, looked up, change not shown): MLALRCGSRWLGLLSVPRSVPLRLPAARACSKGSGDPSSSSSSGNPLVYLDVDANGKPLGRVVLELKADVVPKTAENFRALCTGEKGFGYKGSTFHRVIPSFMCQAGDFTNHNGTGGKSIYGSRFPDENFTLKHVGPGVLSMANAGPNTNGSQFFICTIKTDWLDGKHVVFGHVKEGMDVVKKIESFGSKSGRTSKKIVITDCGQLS

Chain of Recombinant GST-CypD (wild type) (P30405 whole entry): as the sequence (P30405 whole entry, looked up, change not shown) above

Substance: active Akt1
- kinase assay with recombinant proteins, autoradiography [1]: readily phosphorylated
- kinase assay with recombinant proteins, autoradiography [2]: readily phosphorylated
